{"source": "patent US20170086465A1", "about": "(TECHNION RESEARCH AND DEVELOPMENT FOUNDATION, published 2017)", "molecular_target": "the molecule itself", "assay": "cell-based or functional assay", "data": [{"protein": "C. elegans aff-1 fused to a C-terminal FLAG tag (AFF-1::FLAG) (other) RLRRHHRKRRFVSSNFDEFYCGESAHAQSQFEEERESNSSKVSSVHSTQFNWGLDNTICIKLQNVVHVLKYERLEQRYPIENSYTFSVPLIDTNCKCHCYGFGTNDVCNVEKYADDRNCTTSSEFPTCYTKYHPAVEPLDCPVTSIPAKACCDIKLKPRDGRMFRAVKLQQPINDMIISHSIFANNSGKMMKVLGPDEFRINLLKGKEQFELTEYHRISVQLVASSPQQQLREGMYYFPEENHNDLREGKINEITESDLDKLGWYRRVGNDWQVATSGLLLRNAHKVVIKNCKGQVHMDQFSGTKNFVLRGTQYNDTYNERRVSDNNFVRSVKVDESSREITIVHEHGTAAQVSLKTDTRPNLTKSQSLLANFTGSITLDHDGNRMLNVTFFGVKGTVHIKMYVNDRKLIATFACTAQFGTSLKDDGSRISLPSTINQAQWVCILPDEQPTKSEICKWIPYEEKAMRTPRQEQSWSKGHSPCSQAECNSLKSGVSDLFPWIMNFDYFMAHGGDFTEWLKIGIHIVIAVGLLLLLILLFTKCLVPLACCSLSIPFKNRNKKKKKKNSSDY", "values": [{"measurement": "infection of BHK-AFF-1 cells by VSVΔG-AFF-1 pseudovirus (GFP-expressing cells)", "result": 600, "unit": "fold"}]}]}
